Assay [1] deals with T1, human neuropilin-2 at the membrane surface (HT29-NRP-2, P815-NRP-2 cells) (Homo sapiens, UniProt O60462).
T1 construct: expressed in transfected cells; host or cells: HT29 (human colorectal cancer) and P815 (murine mastocytoma) cells, G418-selected
Nature of the assay: Flow cytometry membrane labelling of cells expressing or not expressing NRP-2. Type of assay: binding. As to conditions: 5 μg/ml antibody, 15 minutes at 4° C.; HT29, HT29-NRP-2, P815, P815-NRP-2 cells. The method, then: The ITAC-B1 clone was deposited, according to the Treaty of Budapest, with the CNCM (Collection Nationale des Microorganismes [French National Microorganism Collection], Institut Pasteur, 25 rue du Docteur Roux, 75724 Paris Cedex 15, France) on 30 Jul. 2008 under the deposit number CNCM 1-4054. In order to characterize the ITAC-B1 and ITAC-B2 monoclonal antibodies, membrane labelling was carried out by flow cytometry by bringing 200 000 HT29, HT29-NRP-2, P815 or P815-NRP-2 cells into contact with 5 μg/ml of ITAC-B1 or of ITAC-B2, for 15 minutes at 4° C. A goat anti-mouse secondary antibody coupled to FITC was then incubated for 15 minutes in the dark, at 4° C., before reading by flow cytometry. The results of the flow cytometry analysis obtained for ITAC-B1 are represented in FIG. 2.
For each of the panels of FIG. 2, the number of events (number of cells) is indicated on a y-axis, the fluorescence intensity (corresponding to the labelling of the cells with the ITAC-B1 antibody) is represented on the x-axis. Panels A and C (P815+ITAC-B1 and HT29ctrl+ITAC-B1) of FIG. 2 represent the results obtained by flow cytometry with the control cells, while panels B and D (P815-NRP-2+ITAC-B1 and HT29-NRP-2+ITAC-B1) represent the results obtained with cells expressing NRP-2 at their membrane surface. […]

The subject of the next assay is HT29-NRP-2 tumour cells. In words: HT29-NRP-2 subcutaneous xenograft, tumour volume. The format is in vivo, immunodeficient mice. The method, then: HT29-NRP-2 tumour cells were injected subcutaneously into 20 immunodeficient mice, at a rate of 1×10^6 cells per mouse, in the right flank. 10 days after the injection, the tumours measure approximately 5 mm×5 mm.
In accordance with the protocol described above, group B was inoculated with ITAC-B1 at D0 (12 mg/kg), D3 (6 mg/kg), D7 (12 mg/kg) and D10 (6 mg/kg). Group C was inoculated with 20 mg/kg of 5-FU from D0 to D4 and then with 100 mg/kg at D9. Group D was inoculated with ITAC-B1 at D0 (12 mg/kg), D3 (6 mg/kg), D7 (12 mg/kg) and D10 (6 mg/kg) and with 20 mg/kg of 5-FU from D0 to D4 and 100 mg/kg of 5-FU at D9.
The tumours were measured twice a week, and the volume of the tumours was calculated with the formula: V (mm^3)=d^2×D/2.
FIG. 21 represents the tumour volume as a function of time. Group A (PBS control) is represented by (⋄), group B (mice inoculated with the ITAC-B1 antibody) is represented by (▪), group C (mice inoculated with 5-FU) is represented by (Δ), and group D (mice inoculated both with the ITAC-B1 antibody and with 5-FU) is represented by (x).

The source of these data is patent publication US8722043B2, “Induction of p53 expression by neutralization of neuropilin-2 for the treatment of cancers” (Diaclone, priority 2008, dated 2014).

T1 sequence (O60462 21-931): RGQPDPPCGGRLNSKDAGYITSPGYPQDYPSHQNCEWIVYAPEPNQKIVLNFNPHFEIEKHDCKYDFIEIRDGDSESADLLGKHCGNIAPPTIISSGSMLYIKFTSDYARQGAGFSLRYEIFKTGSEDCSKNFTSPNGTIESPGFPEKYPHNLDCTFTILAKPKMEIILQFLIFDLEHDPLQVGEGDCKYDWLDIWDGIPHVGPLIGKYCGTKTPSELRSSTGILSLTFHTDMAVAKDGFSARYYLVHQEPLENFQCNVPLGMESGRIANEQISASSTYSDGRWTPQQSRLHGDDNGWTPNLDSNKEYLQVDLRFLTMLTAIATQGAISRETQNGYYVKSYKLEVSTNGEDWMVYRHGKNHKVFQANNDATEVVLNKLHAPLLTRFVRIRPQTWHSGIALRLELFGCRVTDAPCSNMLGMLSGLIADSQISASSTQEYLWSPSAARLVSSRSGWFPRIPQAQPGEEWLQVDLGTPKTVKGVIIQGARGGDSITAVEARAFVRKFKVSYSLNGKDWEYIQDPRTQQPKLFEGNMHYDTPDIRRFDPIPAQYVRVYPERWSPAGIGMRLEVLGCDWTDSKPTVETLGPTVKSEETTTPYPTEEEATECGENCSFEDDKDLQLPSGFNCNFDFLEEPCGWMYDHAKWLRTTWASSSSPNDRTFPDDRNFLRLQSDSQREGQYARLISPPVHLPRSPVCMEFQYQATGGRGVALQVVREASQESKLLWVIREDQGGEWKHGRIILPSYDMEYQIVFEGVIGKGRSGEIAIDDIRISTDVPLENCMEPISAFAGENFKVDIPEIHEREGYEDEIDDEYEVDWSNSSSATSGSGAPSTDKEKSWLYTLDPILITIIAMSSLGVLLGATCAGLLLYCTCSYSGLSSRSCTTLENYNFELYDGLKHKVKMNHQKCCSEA

B1: ITAC-B1: anti-human neuropilin-2 murine monoclonal antibody, VH SEQ ID No. 2, VL SEQ ID No. 4, produced by hybridoma CNCM 1-4054 (antibody, listed as Mus musculus, V domains shown)
VH: EVKLQESGAELVKPGASVKLSCTVSGFNIKDTYIHWVIQRPEQGLEWLGRIDPANGNTKYDPKFQGKATITADTSSNTAYLQLSSLTSEDTAVYYCARWAVVGDYWGQGTTLTVSS
VL: YCDHPLYKFLHVSAGDRVTITCKASQSVSDDVAWYQQKPGQSPKLLIYSASNRYTGVPDRFTGSGYGTDFTFTISTVQPEDLAVYFCQQDYSSPTFGSGTKLELK
For the molecule B1, in assay [1], the “labelling of cells expressing NRP-2 versus cells not expressing NRP-2” value is reported as “specifically recognize the neuropilin-2 present at the membrane surface”. In addition, the tumour volume result in the assay with HT29-NRP-2 tumour cells (group B: ITAC-B1 intraperitoneally D0 12 mg/kg, D3 6 mg/kg, D7 12 mg/kg, D10 6 mg/kg) is “reduction in tumour volume is observed starting from D14”; in the assay on HT29-NRP-2 tumour cells (group D: ITAC-B1 combined with 5-FU, same regimens), “more marked”.
